Experimental data taken from US20160160255A1, “Methods and Materials for Producing 6-Carbon Monomers” (INVISTA North America S.á.r.l., priority 2014, published 2016).

Test: β-ketothiolase activity, 4-hydroxybutyryl-CoA and acetyl-CoA to 3-oxo-6-hydroxyhexanoyl-CoA
Type: biochemical
Settings: 5 μM enzyme and ChnC lactonase, 10 mM γ-butyrolactone, 5 mM acetyl-CoA, pH 6.8, 30° C., 3 hour
Experimental: A nucleotide sequence encoding a N-terminal His-tag was added to the gene from Clostridium aminobutyricum encoding the β-ketothiolase activity of SEQ ID NO: 14 (see FIG. 6) such that a N-terminal HIS tagged enzyme could be produced. The resulting modified gene was cloned into a pET15b expression vector under control of the T7 promoter and the expression vector was transformed into a BL21[DE3] E. coli host. The resulting recombinant E. coli strain was cultivated at 37° C. in a 1 L shake flask culture containing 350 mL LB media and ampicillin antibiotic selection pressure, with shaking at 230 rpm. Each culture was induced overnight at 25° C. using 1 mM IPTG.
The pellet from each induced shake flask culture was harvested via centrifugation. Each pellet was resuspended and lysed via sonication. The cell debris was separated from the supernatant via centrifugation. The enzyme was purified from the supernatant using Ni-affinity chromatography, buffer exchanged and concentrated into 50 mM potassium phosphate buffer (pH=6.8) via ultrafiltration.
Enzyme activity assays converting 4-hydroxybutyryl-CoA and acetyl-CoA to 3-oxo-6-hydroxyhexanoyl-CoA were performed in triplicate in a buffer composed of a final concentration of 50 mM potassium phosphate buffer (pH=6.8), 75 μM ZnCl2, 10 mM γ-butyrolactone and 5 mM acetyl-CoA. […] The formation of 3-oxo-6-hydroxyhexanoyl-CoA was determined via LC-MS.

B1: SEQ ID NO 14: Clostridium aminobutyricum CoA-transferase, GenBank Accession No. CAB60036.2, with β-ketothiolase activity, N-terminal His-tagged (protein, listed as Clostridium aminobutyricum)
chain: MDWKKIYEDRTCTADEAVKSIKSGDRVLFAHCVAEPPVLVEAMVANAAAYKNVTVSHMVTLGKGEYSKPEYKENFTFEGWFTSPSTRGSIAEGHGQFVPVFFHEVPSLIRKDIFHVDVFMVMVSPPDHNGFCCVGVSSDYTMQAIKSAKIVLAEVNDQVPVVYGDTFVHVSEIDKFVETSHPLPEIGLPKIGEVEAAIGKHCASLIEDGSTLQLGIGAIPDAVLSQLKDKKHLGIHSEMISDGVVDLYEAGVIDCSQKSIDKGKMAITFLMGTKRLYDFAANNPKVELKPVDYINHPSVVAQCSKMVCINACLQVDFMGQIVSDSIGTKQFSGVGGQVDFVRGASMSIDGKGKAIIAMPSVAKKKDGSMISKIVPFIDHGAAVTTSRNDADYVVTEYGIAEMKGKSLQDRARALINIAHPDFKDELKAEFEKRFNAAF
modifications: N-terminal His tag
Question: For B1, which “acceptance of 4-hydroxybutyryl-CoA and acetyl-CoA as substrates, formation of 3-oxo-6-hydroxyhexanoyl-CoA (LC-MS)” value is on record?
Answer: accepted 4-hydroxybutyryl-CoA and acetyl-CoA as substrates
